Test [1] concerns the target ATF6 (activating transcription factor 6), endogenous (UniProt P18850). As to the kind of experiment: co-immunoprecipitation (GFP trap beads), western blot band quantitation. The settings on record: HEK293T/17 cells, 48 h post transfection; parent: est. 1.0; read off a plot.
Test [2] concerns the target ZIKV E protein expressed from pcDNA3.1+_19CprME-Zika (with prM). Described as above. The following applies: HEK293T/17 cells, 48 h post transfection; parent: est. 1.0; read off a plot.

Sequence of ATF6 (activating transcription factor 6), endogenous (P18850 whole entry): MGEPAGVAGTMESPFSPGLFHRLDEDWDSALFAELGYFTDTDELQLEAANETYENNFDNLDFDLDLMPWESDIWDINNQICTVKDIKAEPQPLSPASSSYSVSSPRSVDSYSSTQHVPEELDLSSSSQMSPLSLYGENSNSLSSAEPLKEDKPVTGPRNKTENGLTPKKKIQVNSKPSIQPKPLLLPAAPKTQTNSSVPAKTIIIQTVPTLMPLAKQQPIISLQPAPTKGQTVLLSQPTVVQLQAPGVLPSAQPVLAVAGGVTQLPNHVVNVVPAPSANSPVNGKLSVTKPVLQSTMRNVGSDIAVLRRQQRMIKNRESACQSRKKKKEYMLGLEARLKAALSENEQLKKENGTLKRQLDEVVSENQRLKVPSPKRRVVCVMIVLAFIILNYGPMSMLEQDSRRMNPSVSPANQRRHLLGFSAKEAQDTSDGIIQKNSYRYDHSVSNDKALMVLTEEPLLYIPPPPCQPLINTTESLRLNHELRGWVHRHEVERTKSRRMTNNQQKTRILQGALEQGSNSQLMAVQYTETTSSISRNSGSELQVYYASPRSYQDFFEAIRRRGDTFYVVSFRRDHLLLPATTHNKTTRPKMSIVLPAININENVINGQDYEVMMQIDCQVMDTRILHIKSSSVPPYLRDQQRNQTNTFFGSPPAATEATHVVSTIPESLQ
Sequence of EGFP-full length GRP78 (wild type), P11021 K585A (P11021 19-654 K585A): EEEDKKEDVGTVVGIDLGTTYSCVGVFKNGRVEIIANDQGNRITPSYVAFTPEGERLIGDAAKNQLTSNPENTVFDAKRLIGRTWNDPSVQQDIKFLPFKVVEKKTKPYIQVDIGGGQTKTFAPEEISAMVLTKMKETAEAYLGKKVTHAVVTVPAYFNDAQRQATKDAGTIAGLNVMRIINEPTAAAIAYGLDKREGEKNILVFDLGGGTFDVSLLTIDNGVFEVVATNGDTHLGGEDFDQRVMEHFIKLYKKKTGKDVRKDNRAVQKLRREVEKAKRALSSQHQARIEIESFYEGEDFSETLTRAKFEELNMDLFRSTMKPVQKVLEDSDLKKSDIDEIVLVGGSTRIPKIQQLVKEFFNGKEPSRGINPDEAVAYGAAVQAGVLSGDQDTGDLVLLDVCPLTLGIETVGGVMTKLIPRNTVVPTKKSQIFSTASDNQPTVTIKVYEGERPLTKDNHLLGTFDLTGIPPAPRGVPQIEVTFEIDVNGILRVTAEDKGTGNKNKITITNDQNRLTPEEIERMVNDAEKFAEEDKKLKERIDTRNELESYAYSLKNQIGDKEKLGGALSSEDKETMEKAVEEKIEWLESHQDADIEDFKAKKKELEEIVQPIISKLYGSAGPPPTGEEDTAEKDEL
Sequence of EGFP-full length GRP78 (wild type), P11021 V429Q (P11021 19-654 V429Q): as the sequence (P11021 19-654 K585A) above, with V411Q, A567K counted along it
Sequence of EGFP-full length GRP78 (wild type), P11021 K621A (P11021 19-654 K621A): as the sequence (P11021 19-654 K585A) above, with A567K, K603A counted along it
Sequence of EGFP-full length GRP78 (wild type), P11021 R492E (P11021 19-654 R492E): as the sequence (P11021 19-654 K585A) above, with R474E, A567K counted along it
Sequence of EGFP-full length GRP78 (wild type), P11021 T518A (P11021 19-654 T518A): as the sequence (P11021 19-654 K585A) above, with T500A, A567K counted along it
Sequence of EGFP-full length GRP78 (wild type), P11021 R470E (P11021 19-654 R470E): as the sequence (P11021 19-654 K585A) above, with R452E, A567K counted along it

On to “EGFP-full length GRP78 (wild type), P11021 T518A”, for which the ratio to parent in test [1] stood at 0.4.
Regarding “EGFP-full length GRP78 (wild type) (from UniProt P11021) R492E”, the ratio to parent in test [2] was found to be 0.47.
On to “EGFP-full length GRP78 (wild type), P11021 K621A”, for which the ratio to parent in test [1] turned out to be 0.82.
On to “EGFP-full length GRP78 (wild type) (from UniProt P11021) V429Q”, for which the ratio to parent in test [2] was found to be 1.1.
Turning to “EGFP-full length GRP78 (wild type), P11021 V429Q”, the ratio to parent in test [1] turned out to be 0.98.
Still for that read-out and setting: under “EGFP-full length GRP78 (wild type), P11021 K585A” stands 0.82.
The same measure, in the same setting: under “EGFP-full length GRP78 (wild type), P11021 R470E” stands 0.95.
Take “EGFP-full length GRP78 (wild type) (from UniProt P11021) T518A”: the ratio to parent in test [2] was 0.42.
Still for that read-out and setting: under “EGFP-full length GRP78 (wild type) (from UniProt P11021) H477E” stands 1.3; under “EGFP-full length GRP78 (wild type) (from UniProt P11021) K585A”, 1.
Regarding “EGFP-full length GRP78 (wild type) (from UniProt P11021) K621A”, the ratio to parent in test [2] was determined as 0.72.
For the substance “EGFP-full length GRP78 (wild type), P11021 R492E”, the ratio to parent in test [1] came out at 0.28.

The record behind these values is article PMC11074156.
